Assay results published in publication PMC10397247.

How the values were obtained:
O3-AA = target: T1, O3-AA; experiment: two-hybrid library CCmax;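 note: natural log of median RNA to DNA barcode read ratio; higher means stronger binding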
T1 chain: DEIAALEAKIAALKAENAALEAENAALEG

P9-AA = target: T2, P9-AA; experiment: two-hybrid library CCmax; conditions: mean of both orientations;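 note: natural log of median RNA to DNA barcode read ratio; higher means stronger binding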
T2 chain: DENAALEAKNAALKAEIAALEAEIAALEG

O5-AA = target: T3, O5-AA; experiment: two-hybrid library CCmax; conditions: mean of both orientations;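 note: natural log of median RNA to DNA barcode read ratio; higher means stronger binding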
T3 chain: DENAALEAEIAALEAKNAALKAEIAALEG

O8-AA = target: T4, O8-AA; experiment: two-hybrid library CCmax; conditions: mean of both orientations;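 note: natural log of median RNA to DNA barcode read ratio; higher means stronger binding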
T4 chain: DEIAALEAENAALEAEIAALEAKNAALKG

O6-AA = target: T5, O6-AA; experiment: two-hybrid library CCmax; conditions: mean of both orientations;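 note: natural log of median RNA to DNA barcode read ratio; higher means stronger binding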
T5 chain: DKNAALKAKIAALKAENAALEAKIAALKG

O4-AA = target: T6, O4-AA; experiment: two-hybrid library CCmax; conditions: mean of both orientations;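 note: natural log of median RNA to DNA barcode read ratio; higher means stronger binding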
T6 chain: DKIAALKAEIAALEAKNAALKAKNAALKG

P10-AA = target: T7, P10-AA; experiment: two-hybrid library CCmax; conditions: mean of both orientations
T7 chain: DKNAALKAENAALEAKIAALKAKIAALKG

O7-AA = target: T8, O7-AA; experiment: two-hybrid library CCmax; conditions: mean of both orientations
T8 chain: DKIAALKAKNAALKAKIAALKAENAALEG

P8A-bS = target: T9, P8A-bS; experiment: two-hybrid library CCNG1
T9 chain: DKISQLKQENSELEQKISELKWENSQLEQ

P7A-bS = target: T10, P7A-bS; experiment: two-hybrid library CCNG1
T10 chain: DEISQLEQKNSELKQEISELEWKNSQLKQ

P9A-bS = target: T11, P9A-bS; experiment: two-hybrid library CCNG1
T11 chain: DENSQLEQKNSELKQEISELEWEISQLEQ

P9mS = target: T12, P9mS; experiment: two-hybrid library CCNG1
T12 chain: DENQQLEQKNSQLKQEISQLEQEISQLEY

P9A-bN = target: T13, P9A-bN; experiment: two-hybrid library CCNG1
T13 chain: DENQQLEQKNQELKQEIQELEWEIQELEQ

P8A-bN = target: T14, P8A-bN; experiment: two-hybrid library CCNG1
T14 chain: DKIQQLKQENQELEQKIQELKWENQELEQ

4H470-bH = target: T15, 4H470-bH; experiment: two-hybrid library CCNG1
T15 chain: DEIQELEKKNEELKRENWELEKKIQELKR

DEIAALEAKIAALKAENAALEAENAALEG [O3-AA]
interaction score (O3-AA): -0.811 | interaction score (P9-AA): -0.88 | interaction score (O5-AA): -1.22 | interaction score (O8-AA): -1.37 | interaction score (O6-AA): -0.902 | interaction score (O4-AA): 1.99 | interaction score (P10-AA): -1.06 | interaction score (O7-AA): -1.4

DEISQLEQKNSELKQEISELEWKNSQLKQ [P7A-bS]
interaction score (P8A-bS): 0.493 | interaction score (P7A-bS): -1.32 | interaction score (P9A-bS): -0.768

DENQQLEQKNSQLKQEISQLEQEISQLEY [P9mS]
interaction score (P9mS): -1.32

DKIQQLKQENQELEQKIQELKWENQELEQ [P8A-bN]
interaction score (P9A-bN): -1.47 | interaction score (P8A-bN): -1.84

DEIQELEKKNEELKRENWELEKKIQELKR [4H470-bH]
interaction score (4H470-bH): 0.789
